± gives the uncertainty stated by the source.
Experiment: self-splicing fitness, log relative to wild type (ln ratio); higher = more splicing; Tetrahymena group I intron in knt gene, E. coli kanamycin selection, DiMSum; sequences stand for … in CUCUCU…GGAGGGAAAAGUUAUCAGGCAUGCACCUGGUAGCUAGUCUUUAAACCAAUAGAUUGCAUCGGUUUAAAAGGCAAGACCGUCAAAUUGCGGGAAAGGGGUCAACAGCCGUUCAGUACCAAGUCUCAGGGGAAACUUUGAGAUGGCCUUGCAAAGGGUAUGGUAAUAAGCUGACGGACAUGGUCCUAACCACGCAGCCAAGUCCUAAGUCAACAGAUCUUCUGUUGAUAUGGAUGCAGUUCACAGACUAAAUGUCGGUCGGGGAAGAUGUAUUCUUCUCAUAAGAUAUAGUCGGACCUCUCCUUAAUGGGAGCUAGCGGAUGAAGUGAUGCAACACUGGAGCCGCUGGGAACUAAUUUGUAUGCGAAAGUAUAUUGAUUAGUUUUGGAGUACUCGUGGUCG
Method in brief: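 The eight P1ex-region nucleotides of an intron in the knt kanamycin-resistance gene on pET-22b(+) were all randomised and the library put into E. coli BL21(DE3). Six replicate transformations were grown overnight at 37°C or 30°C on LB agar with or without 25 μg/mL kanamycin, together with 100 μg/mL carbenicillin, 50 μM IPTG and 0.2% rhamnose. Colonies were pooled and amplicon-sequenced on an Illumina HiSeq 2500. Fitness from DiMSum is the error-weighted combination of wild-type-normalised replicate fold changes, kanamycin over none.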

Sequence | self-splicing fitness (ln) (30 °C) | self-splicing fitness (ln) (37 °C)
UAAUAGCAAUAUUACGGACA | -1.12 ± 0.17 | -0.393 ± 0.16
UAAUAGCAAUAUUACGGACC |  | -1.42 ± 0.29
UAAUAGCAAUAUUACGGAUG | -1.58 ± 0.08 | -0.737 ± 0.087
UAAUAGCAAUAUUACGGCAA | -1.99 ± 0.14 | -0.69 ± 0.12
UAAUAGCAAUAUUACGGCAG | -1.08 ± 0.1 | -0.425 ± 0.13
UAAUAGCAAUAUUACGGCGU | -2.6 ± 0.19 | -1.6 ± 0.24
UAAUAGCAAUAUUACGGGAA | -2.04 ± 0.21 | -2.11 ± 0.26
UAAUAGCAAUAUUACGGGAU | -4.36 ± 0.46 | -2.49 ± 0.22
UAAUAGCAAUAUUACGGGGA | -1.91 ± 0.15 | -2.65 ± 0.34
UAAUAGCAAUAUUACGGGUA | -1.9 ± 0.17 | -0.433 ± 0.14
UAAUAGCAAUAUUACGGUCG | -0.872 ± 0.1 | 0.313 ± 0.11
UAAUAGCAAUAUUACGUAAC |  | -2.03 ± 0.38
UAAUAGCAAUAUUACGUAUG | -1.88 ± 0.12 | -0.28 ± 0.13
UAAUAGCAAUAUUACGUGCC | -3.27 ± 0.43 | -1.47 ± 0.31
UAAUAGCAAUAUUACGUGGA | -2.97 ± 0.23 | -2.33 ± 0.24
UAAUAGCAAUAUUACGUUAC | -4.32 ± 0.34 | -2.2 ± 0.23
UAAUAGCAAUAUUACGUUCA | -0.833 ± 0.098 | -0.14 ± 0.1
UAAUAGCAAUAUUACGUUCC |  | -1.52 ± 0.48
UACAAGCAAUAUUACGAACU | -1.48 ± 0.089 | -0.628 ± 0.1
UACAAGCAAUAUUACGAAGG | -2.52 ± 0.11 | -1.38 ± 0.12
UACAAGCAAUAUUACGACAA | -0.986 ± 0.11 | -0.403 ± 0.11
UACAAGCAAUAUUACGAGCG | -0.155 ± 0.074 | -0.0756 ± 0.099
UACAAGCAAUAUUACGAUAA | -1.93 ± 0.13 | -0.276 ± 0.12
UACAAGCAAUAUUACGAUAU | -2.75 ± 0.15 | -1.66 ± 0.19
UACAAGCAAUAUUACGAUGG | -1.37 ± 0.079 | -0.712 ± 0.085
UACAAGCAAUAUUACGAUUU | -1.76 ± 0.066 | -0.754 ± 0.084
UACAAGCAAUAUUACGCAAA | -2.24 ± 0.14 | -1.51 ± 0.14

Sequence | self-splicing fitness (ln) (30 °C) | self-splicing fitness (ln) (37 °C)
UACAAGCAAUAUUACGCACU | -0.66 ± 0.077 | -0.133 ± 0.09
UACAAGCAAUAUUACGCUCC | -2.38 ± 0.17 | -0.668 ± 0.17
UACAAGCAAUAUUACGCUUU | -3.73 ± 0.17 | -2.29 ± 0.16
UACAAGCAAUAUUACGGCUC | -1.46 ± 0.088 | -0.468 ± 0.11
UACAAGCAAUAUUACGGGGU | -3.88 ± 0.15 | -2.58 ± 0.15
UACAAGCAAUAUUACGGGUC | -3.32 ± 0.16 | -2.78 ± 0.16
UACAAGCAAUAUUACGGUCC | -1.38 ± 0.18 | -1.34 ± 0.18
UACAAGCAAUAUUACGGUGU | -3.91 ± 0.17 | -1.71 ± 0.12
UACAAGCAAUAUUACGUAAU | -2.72 ± 0.18 | -0.0213 ± 0.15
UACAAGCAAUAUUACGUCAG | -2.54 ± 0.14 | -2 ± 0.15
UACAAGCAAUAUUACGUCUG | -0.521 ± 0.071 | 0.299 ± 0.08
UACAAGCAAUAUUACGUUUA | -1.33 ± 0.07 | -0.605 ± 0.072
UACCAGCAAUAUUACGAAGA | -1.63 ± 0.097 | -0.519 ± 0.11
UACCAGCAAUAUUACGACCC | -2.84 ± 0.5 | -1.02 ± 0.44
UACCAGCAAUAUUACGACUC | -2.5 ± 0.18 | -1.65 ± 0.2
UACCAGCAAUAUUACGAUAC |  | -2.39 ± 0.19
UACCAGCAAUAUUACGAUCC | -1.4 ± 0.15 | -1.84 ± 0.26
UACCAGCAAUAUUACGAUGC | -3.19 ± 0.16 | -3.07 ± 0.25
UACCAGCAAUAUUACGAUGU | -1.9 ± 0.091 | -1.41 ± 0.11
UACCAGCAAUAUUACGCAAU | -2.29 ± 0.091 | -0.841 ± 0.076
UACCAGCAAUAUUACGCAUA | -0.736 ± 0.072 | 0.0861 ± 0.083
UACCAGCAAUAUUACGCAUG | -1.22 ± 0.062 | -1.09 ± 0.078
UACCAGCAAUAUUACGCCGA | -1.45 ± 0.16 | -0.513 ± 0.17
UACCAGCAAUAUUACGCGAG | -0.774 ± 0.049 | -0.168 ± 0.061
UACCAGCAAUAUUACGCUCC | -1.12 ± 0.18 | -0.501 ± 0.2
UACCAGCAAUAUUACGGCCG | 0.00307 ± 0.099 | -0.366 ± 0.12
UACCAGCAAUAUUACGGGCU | -2.89 ± 0.14 | -1.96 ± 0.19

Sequence | self-splicing fitness (ln) (30 °C) | self-splicing fitness (ln) (37 °C)
UACCAGCAAUAUUACGUAAU | -2.56 ± 0.097 | -1.06 ± 0.096
UACCAGCAAUAUUACGUGAA | -1.06 ± 0.053 | -0.463 ± 0.076
UACCAGCAAUAUUACGUUCU | -2.28 ± 0.096 | -1.86 ± 0.11
UACGAGCAAUAUUACGAAAA | -3.03 ± 0.44 | -2.28 ± 0.39
UACGAGCAAUAUUACGAAAU |  | -1.69 ± 0.25
UACGAGCAAUAUUACGACAC | -3.07 ± 0.19 | -3.28 ± 0.25
UACGAGCAAUAUUACGACCA | -1.71 ± 0.42 | 
UACGAGCAAUAUUACGACGG | -2.13 ± 0.15 | 0.000849 ± 0.18
UACGAGCAAUAUUACGAGGC | -4.33 ± 0.39 | -2.51 ± 0.25
UACGAGCAAUAUUACGAUCA | -1.89 ± 0.15 | -0.737 ± 0.13
UACGAGCAAUAUUACGAUGU | -3.35 ± 0.32 | -2.46 ± 0.34
UACGAGCAAUAUUACGAUUU | -2.88 ± 0.17 | -1.3 ± 0.16
UACGAGCAAUAUUACGCAGU | -3.15 ± 0.26 | -2.95 ± 0.33
UACGAGCAAUAUUACGCCAC |  | -2.29 ± 0.42
UACGAGCAAUAUUACGCGCG | -1.35 ± 0.13 | -1.14 ± 0.18
UACGAGCAAUAUUACGGAAC | -4.04 ± 0.42 | -3.02 ± 0.35
UACGAGCAAUAUUACGGAGC | -2.66 ± 0.3 | -2.8 ± 0.32
UACGAGCAAUAUUACGGCAU | -3.45 ± 0.23 | -1.25 ± 0.15
UACGAGCAAUAUUACGGCUC |  | 0.0878 ± 0.5
UACGAGCAAUAUUACGGCUG | -0.628 ± 0.077 | -0.0702 ± 0.1
UACGAGCAAUAUUACGGUCC | -3.61 ± 0.43 | 
UACGAGCAAUAUUACGGUGA | -3.12 ± 0.18 | -1.21 ± 0.13
UACGAGCAAUAUUACGUACU | -3.32 ± 0.32 | -1.76 ± 0.22
UACGAGCAAUAUUACGUAUU | -3.45 ± 0.25 | -2.47 ± 0.41
UACGAGCAAUAUUACGUCAC | -2.59 ± 0.25 | -2.09 ± 0.32
